Consider 2 substances from PMC9140497.

The assay addresses α2β1 integrin (human (endogenous in HT1080)) (UniProt P17301).
UniProt P17301, sequence (P17301 30-1181, chain 1 of 2): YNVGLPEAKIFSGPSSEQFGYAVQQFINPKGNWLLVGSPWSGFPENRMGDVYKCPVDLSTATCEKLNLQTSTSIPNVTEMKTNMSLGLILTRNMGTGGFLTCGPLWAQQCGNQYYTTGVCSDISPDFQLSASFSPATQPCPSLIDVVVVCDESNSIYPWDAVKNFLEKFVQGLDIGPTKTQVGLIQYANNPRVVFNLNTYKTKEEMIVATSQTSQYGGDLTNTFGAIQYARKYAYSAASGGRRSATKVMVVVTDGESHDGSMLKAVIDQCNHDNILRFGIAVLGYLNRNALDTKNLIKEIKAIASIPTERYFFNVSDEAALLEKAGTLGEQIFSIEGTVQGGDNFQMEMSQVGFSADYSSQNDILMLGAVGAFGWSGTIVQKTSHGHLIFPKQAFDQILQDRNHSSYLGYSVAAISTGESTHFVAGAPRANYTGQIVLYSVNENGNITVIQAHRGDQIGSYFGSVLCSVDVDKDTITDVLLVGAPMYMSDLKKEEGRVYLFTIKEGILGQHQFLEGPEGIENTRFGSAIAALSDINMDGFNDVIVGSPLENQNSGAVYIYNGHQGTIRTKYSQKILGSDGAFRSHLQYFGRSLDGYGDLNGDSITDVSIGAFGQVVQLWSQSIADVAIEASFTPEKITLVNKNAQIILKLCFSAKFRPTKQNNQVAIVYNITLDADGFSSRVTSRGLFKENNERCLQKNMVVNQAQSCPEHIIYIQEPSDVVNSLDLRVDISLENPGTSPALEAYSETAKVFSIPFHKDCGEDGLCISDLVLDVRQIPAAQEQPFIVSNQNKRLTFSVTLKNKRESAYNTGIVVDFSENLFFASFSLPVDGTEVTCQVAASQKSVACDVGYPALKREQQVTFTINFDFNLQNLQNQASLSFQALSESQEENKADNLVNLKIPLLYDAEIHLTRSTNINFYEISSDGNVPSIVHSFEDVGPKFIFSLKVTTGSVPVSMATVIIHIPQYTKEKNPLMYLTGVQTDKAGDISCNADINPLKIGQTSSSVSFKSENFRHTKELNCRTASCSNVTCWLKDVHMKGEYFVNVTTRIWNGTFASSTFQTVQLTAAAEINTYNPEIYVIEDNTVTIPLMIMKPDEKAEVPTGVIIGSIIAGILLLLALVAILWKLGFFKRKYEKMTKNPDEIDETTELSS
UniProt P17301, sequence (P05556 21-798, chain 2 of 2, further chain): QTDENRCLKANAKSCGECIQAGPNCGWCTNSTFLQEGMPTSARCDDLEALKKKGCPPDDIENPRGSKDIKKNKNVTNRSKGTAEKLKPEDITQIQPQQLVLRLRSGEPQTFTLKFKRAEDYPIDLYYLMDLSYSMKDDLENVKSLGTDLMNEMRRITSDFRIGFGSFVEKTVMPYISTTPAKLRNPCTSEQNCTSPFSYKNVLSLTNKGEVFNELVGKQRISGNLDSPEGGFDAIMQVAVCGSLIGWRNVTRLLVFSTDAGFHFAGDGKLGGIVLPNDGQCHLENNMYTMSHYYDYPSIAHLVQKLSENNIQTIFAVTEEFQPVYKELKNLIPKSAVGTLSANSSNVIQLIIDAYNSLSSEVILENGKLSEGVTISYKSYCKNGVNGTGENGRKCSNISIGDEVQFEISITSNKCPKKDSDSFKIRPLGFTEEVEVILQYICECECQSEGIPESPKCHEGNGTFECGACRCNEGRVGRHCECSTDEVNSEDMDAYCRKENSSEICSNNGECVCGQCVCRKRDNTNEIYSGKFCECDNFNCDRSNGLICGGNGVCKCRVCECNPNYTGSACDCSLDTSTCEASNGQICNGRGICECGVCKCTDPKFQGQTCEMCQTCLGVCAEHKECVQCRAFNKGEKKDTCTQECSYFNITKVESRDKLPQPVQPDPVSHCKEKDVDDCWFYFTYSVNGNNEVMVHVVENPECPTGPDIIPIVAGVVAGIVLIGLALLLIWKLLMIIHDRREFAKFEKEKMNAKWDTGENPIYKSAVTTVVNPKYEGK

As to “Rat Tail Collagen (from UniProt P02454 152-1207; P02466 86-1125) (natural protein)”, the adhesion of HT1080 cells pre-incubated with 10 μg/mL mAb13 (anti-β1) on RTC-modified hydrogel stood at 15%.

Consider GFOGER peptide, for which the adhesion of HT1080 cells pre-incubated with 10 μg/mL mAb13 (anti-β1) on Fmoc-FF/S/GFOGER hydrogel came out at 23%.
